Reference: the nanobody polyreactivity screen of Harvey et al. (2022)

Test: yeast display, Sf9 membrane polyspecificity reagent, FACS + sequencing; frameworks hold sequencing errors
Method in brief: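 Synthetic nanobody libraries on Saccharomyces cerevisiae BJ5465 were galactose-induced for 36–48 hours, stained 1 hour at 4 °C with 10% biotinylated, detergent-solubilized Sf9 membrane reagent and enriched on streptavidin microbeads. FACS then separated cells into low and high (top ~1%) gates by anti-HA (expression) and streptavidin (reagent binding) fluorescence. Genes were colony-PCR amplified, MiSeq 2 × 250 sequenced and CDR-length filtered. A clone's polyreactivity label is that of its gate of origin.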

Sequence | polyreactivity (PSR sort gate)
QVQLVESGGGLVQAGGSLRLSCACSGHTFSSYAIGWYRQAPGKERELVAAISVSATRTYYADSVKGRFTISRDNEKNTVYLQMNSLKPEDTAVYYFAARPVQFTYGYWGLGTQVTVSS | high polyreactivity
QVQLVESGGGLVQAGGSLRLSCAASGSTFPVYAMGGYRQAPGKERELVAAISLIGGSTYYADSVKGRFTISRDTAKNTVYLQMNSLKPEDTAVYYCNTAVISSPPAIDVLEMDYWGQGTQVTVSS | low polyreactivity
QVQLVESGGALDQAGGSLRLSCAASGRIFKWYAKGWYRQAPGKERELVATISWSGGSTYYADSVKGRFTISRDNAKKTVYLQMNSLKPEDTAVYYCNADTWLALPGFDYWGQGTQVTVSS | high polyreactivity
QVQLVESGGGLVQAGGSLRLSCAASGRTFRRYAMGLYRQAPGKERELVASISTSGGSTYADSVKGRFTISRDNAKNTVYLQMNSLKPEDTAVYYCAVRSPRYVRNGDYWGQGTQVTVSS | high polyreactivity
QVQLVESGGGLVQAGGSLRLSCAASGFIFYYYAMGWYRQAPGKERELVAAITSGGGTTYYADSVKGRFTISRDNAKNTVYLQMNSLKPEDTAVYYCNADSYYNSWFYYFDGFDGDYWGQGTQVTVSS | high polyreactivity
QVQLVESGGGLVQAGGSLRLSCAASGFIFNYNAMGWYRQAPGKERELVAAIRTSSGSTYYADSVKGRFTISRDNAKNTVYLQMNSLKPEDTAVYYCAKTRYSTYSPIYYYWGQGTQVTVSS | high polyreactivity
QVQLVESGGGLVQAGGSLRLSCAASGRIFQKNAMGWNIQAPGKERELVAVISWSDGSTNYADSVKGRFTISRDNAKNTVYLQMNSLKPEDTAVYYCNAAPLEGTLYDSWGQGTQVTVSS | low polyreactivity
QVQHVESRGGLVQSGGSLRLSCAASGSIFSYYDLGWYRQAPGKERELVASISSGGSTYYADSVKGRFTISRDNAKNTVYLQMNSLKPEDTAVYYCAAVSRWLYWEDDYWGQGTQVTVSS | low polyreactivity
QVQHVESGGGLVQAGGSLRLSCAASGFTFTAYAMGWYRQAPGKERELVAAISYRGGRTNYAYSVKGRFTISRDNAKNTVYLQMNSLKPEDTAVYYCAARPRISTREMDYWGQGTKVTVSS | high polyreactivity
QVQLVESGGGLVQAGGSLRLSCAASGRTFPFYAMGWYRQAPGKERELVAAISISGGSTYYADSVKGRFTISRDNAKNTVYLLMNSLKPEDTAVYYCATDGLYLSWQYSWEELYYWGQGTQVTVSS | high polyreactivity
QVQLVESGGGLVQAGGSLRLSCAASGYIFYDNAMGWYRQAPGKERELVAAISRSGSRTRYADSVKGRFTISRDNAKNTVYLQMNSLKPEDTAVYYCNTRYAKYYYWGQGTQVTVSS | high polyreactivity
QVQLVESGGGLVQAGGSLRLSCAASGFTLSYYAMGWYRQAPRKERELVASISAIGGITYYADSVKGRFTISRDNAKNTVYLQMNSLKPEDSAVYYCIAGKRFTPYDYWGQGTQVTVSS | high polyreactivity
QVQLVESGGGLVQAGGSLRLSCAASGLILYWYAMGWYRQAPGKERELVAAISISGGSTYYADSVKGRFTISRDNAKNTVYLQMNSLKPDDTAVYYSAAVYFYSWEGDGDYWGLGTQVTVSS | low polyreactivity
